Our source for the Total and Unique values is patent US20220119489A1, “COMPOSITIONS AND METHODS FOR […] […] DYSTROPHY AND RELATED DISORDERS” (CHILDREN'S MEDICAL CENTER CORPORATION, published 2022).

B1: IGHG_RABIT (other)
chain: GQPKAPSVFPLAPCCGDTPSSTVTLGCLVKGYLPEPVTVTWNSGTLTNGVRTFPSVRQSSGLYSLSSVVSVTSSSQPVTCNVAHPATNTKVDKTVAPSTCSKPTCPPPELLGGPSVFIFPPKPKDTLMISRTPEVTCVVVDVSQDDPEVQFTWYINNEQVRTARPPLREQQFNSTIRVVSTLPITHQDWLRGKEFKCKVHNKALPAPIEKTISKARGQPLEPKVYTMGPPREELSSRSVSLTCMINGFYPSDISVEWEKNGKAEDNYKTTPAVLDSDGSYFLYNKLSVPTSEWQRGDVFTCSVMHEALHNHYTQKSISRSPGK
B2: LYZ1_MOUSE (enzyme)
chain: KVYNRCELARILKRNGMDGYRGVKLADWVCLAQHESNYNTRATNYNRGDRSTDYGIFQINSRYWCNDGKTPRSKNACGINCSALLQDDITAAIQCAKRVVRDPQGIRAWVAWRTQCQNRDLSQYIRNCGV
B3: ENOB_MOUSE (enzyme)
chain: AMQKIFAREILDSRGNPTVEVDLHTAKGRFRAAVPSGASTGIYEALELRDGDKARYLGKGVLKAVEHINKTLGPALLEKKLSVVDQEKVDKFMIELDGTENKSKFGANAILGVSLAVCKAGAAEKGVPLYRHIADLAGNPDLVLPVPAFNVINGGSHAGNKLAMQEFMILPVGASSFKEAMRIGAEVYHHLKGVIKAKYGKDATNVGDEGGFAPNILENNEALELLKTAIQAAGYPDKVVIGMDVAASEFYRNGKYDLDFKSPDDPARHISGEKLGELYKNFIQNYPVVSIEDPFDQDDWATWTSFLSGVDIQIVGDDLTVTNPKRIAQAVEKKACNCLLLKVNQIGSVTESIQACKLAQSNGWGVMVSHRSGETEDTFIADLVVGLCTGQIKTGAPCRSERLAKYNQLMRIEEALGDKAVFAGRKFRNPKAK
B4: EF1A1_MOUSE (other)
chain: GKEKTHINIVVIGHVDSGKSTTTGHLIYKCGGIDKRTIEKFEKEAAEMGKGSFKYAWVLDKLKAERERGITIDISLWKFETSKYYVTIIDAPGHRDFIKNMITGTSQADCAVLIVAAGVGEFEAGISKNGQTREHALLAYTLGVKQLIVGVNKMDSTEPPYSQKRYEEIVKEVSTYIKKIGYNPDTVAFVPISGWNGDNMLEPSANMPWFKGWKVTRKDGSASGTTLLEALDCILPPTRPTDKPLRLPLQDVYKIGGIGTVPVGRVETGVLKPGMVVTFAPVNVTTEVKSVEMHHEALSEALPGDNVGFNVKNVSVKDVRRGNVAGDSKNDPPMEAAGFTAQVIILNHPGQISAGYAPVLDCHTAHIACKFAELKEKIDRRSGKKLEDGPKFLKSGDAAIVDMVPGKPMCVESFSDYPPLGRFAVRDMRQTVAVGVIKAVDKKAAGAGKVTKSAQKAQKAK
B5: PRDX1_MOUSE (enzyme)
chain: SSGNAKIGYPAPNFKATAVMPDGQFKDISLSEYKGKYVVFFFYPLDFTFVCPTEIIAFSDRADEFKKLNCQVIGASVDSHFCHLAWINTPKKQGGLGPMNIPLISDPKRTIAQDYGVLKADEGISFRGLFIIDDKGILRQITINDLPVGRSVDEIIRLVQAFQFTDKHGEVCPAGWKPGSDTIKPDVNKSKEYFSKQK
B6: Annexin 1 (mouse) (other)
chain: AMVSEFLKQARFLENQEQEYVQAVKSYKGGPGSAVSPYPSFNVSSDVAALHKAIMVKGVDEATIIDILTKRTNAQRQQIKAAYLQENGKPLDEVLRKALTGHLEEVVLAMLKTPAQFDADELRGAMKGLGTDEDTLIEILTTRSNEQIREINRVYREELKRDLAKDITSDTSGDFRKALLALAKGDRCQDLSVNQDLADTDARALYEAGERRKGTDVNVFTTILTSRSFPHLRRVFQNYGKYSQHDMNKALDLELKGDIEKCLTTIVKCATSTPAFFAEKLYEAMKGAGTRHKALIRIMVSRSEIDMNEIKVFYQKKYGISLCQAILDETKGDYEKILVALCGGN
B7: IGG2B_MOUSE (other)
chain: KTTPPSVYPLAPGCGDTTGSSVTLGCLVKGYFPESVTVTWNSGSLSSSVHTFPALLQSGLYTMSSSVTVPSSTWPSQTVTCSVAHPASSTTVDKKLEPSGPISTINPCPPCKECHKCPAPNLEGGPSVFIFPPNIKDVLMISLTPKVTCVVVDVSEDDPDVQISWFVNNVEVHTAQTQTHREDYNSTIRVVSTLPIQHQDWMSGKEFKCKVNNKDLPSPIERTISKIKGLVRAPQVYILPPPAEQLSRKDVSLTCLVVGFNPGDISVEWTSNGHTEENYKDTAPVLDSDGSYFIYSKLNMKTSKWEKTDSFSCNVRHEGLKNYYLKKTISRSPGK
B8: CISY_MOUSE (enzyme)
chain: ASSTNLKDVLSNLIPKEQARIKTFKQQHGKTVVGQITVDMMYGGMRGMKGLVYETSVLDPDEGIRFRGYSIPECQKMLPKAKGGEEPLPEGLFWLLVTGQMPTEEQVSWLSREWAKRAALPSHVVTMLDNFPTNLHPMSQLSAAITALNSESNFARAYAEGMNRAKYWELIYEDCMDLIAKLPCVAAKIYRNLYREGSSIGAIDSRLDWSHNFTNMLGYTDPQFTELMRLYLTIHSDHEGGNVSAHTSHLVGSALSDPYLSFAAAMNGLAGPLHGLANQEVLVWLTQLQKEVGKDVSDEKLRDYIWNTLNSGRVVPGYGHAVLRKTDPRYSCQREFALKHLPKDPMFKLVAQLYKIVPNILLEQGKAKNPWPNVDAHSGVLLQYYGMTEMNYYTVLFGVSRALGVLAQLIWSRALGFPLERPKSMSTDGLMKFVDSK
B9: ENOA_MOUSE (enzyme)
chain: SILRIHAREIFDSRGNPTVEVDLYTAKGLFRAAVPSGASTGIYEALELRDNDKTRFMGKGVSQAVEHINKTIAPALVSKKVNVVEQEKIDKLMIEMDGTENKSKFGANAILGVSLAVCKAGAVEKGVPLYRHIADLAGNPEVILPVPAFNVINGGSHAGNKLAMQEFMILPVGASSFREAMRIGAEVYHNLKNVIKEKYGKDATNVGDEGGFAPNILENKEALELLKTAIAKAGYTDQVVIGMDVAASEFYRSGKYDLDFKSPDDPSRYITPDQLADLYKSFVQNYPVVSIEDPFDQDDWGAWQKFTASAGIQVVGDDLTVTNPKRIAKAASEKSCNCLLLKVNQIGSVTESLQACKLAQSNGWGVMVSHRSGETEDTFIADLVVGLCTGQIKTGAPCRSERLAKYNQILRIEEELGSKAKFAGRSFRNPLAK
B10: Creatine Kinase, Muscle type (enzyme)
chain: not shown
B11: Annexin 2 (mouse) (other)
chain: STVHEILCKLSLEGDHSTPPSAYGSVKPYTNFDAERDALNIETAVKTKGVDEVTIVNILTNRSNVQRQDIAFAYQRRTKKELPSALKSALSGHLETVILGLLKTPAQYDASELKASMKGLGTDEDSLIEIICSRTNQELQEINRVYKEMYKTDLEKDIISDTSGDFRKLMVALAKGRRAEDGSVIDYELIDQDARELYDAGVKRKGTDVPKWISIMTERSVCHLQKVFERYKSYSPYDMLESIKKEVKGDLENAFLNLVQCIQNKPLYFADRLYDSMKGKGTRDKVLIRIMVSRSEVDMLKIRSEFKRKYGKSLYYYIQQDTKGDYQKALLYLCGGDD
B12: FBX50_MOUSE (other)
chain: MEKTQDRDTLSGRMEAEGSLNSEELPPHPQSPPPPPSPRSPTSPVTPELPQPNAPTEVEARQLLVEEWGPLSGKLELPPRISWQLLFLERPLYRNLLSSPNPEGINIYQPAPPTGPTRKPLKELGNFRGWYITTQNLQGPLSWTVKEQCVNLLAKKLWEELLDDEQPDITIMDWFEDSRLDQCVYELHVWLLAADRRTVIAQHHVAPRTNGRGPPGRWIQVSHVFRQYGPGVRFVYFQHKAKNRMEPGGLRRTRVTDSSVSVQLRE
B13: QCR2_MOUSE (other)
chain: SLKVAPKVKTSAAPGGVPLQPQDLEFTKLPNGLVIASLENYAPLSRIGLFVKAGSRYEDSNNLGTSHLLRLASSLTTKGASSFKITRGIEAVGGKLSVTATRENMAYTVEGIRSDIEILMEFLLNVTTAPEFRRWEVAALRSQLKIDKAVAFQNSQTRIIENLHDVAYKNALANPLYCPDYRMGKITSEELHYFVQNHFTSARMALVGLGVSHSVLKQVAEQFLNMRGGLGLAGAKAKYRGGEIREQNGDNLVHAAIVAESAAIGNAEANAFSVLQHLLGAGPHIKRGNNTTSLLSQSVAKGSHQPFDVSAFNASYSDSGLFGIYTISQAAAAGEVINAAYNQVKAVAQGNLSSADVQAAKNKLKAGYLMSVETSEGFLSEIGSQALAAGSYMPPSTVLQQIDSVADADVVKAAKKFVSGKKSMAASGNLGHTPFLDEL
B14: ALDOA_MOUSE (enzyme)
chain: PHPYPALTPEQKKELSDIAHRIVAPGKGILAADESTGSIAKRLQSIGTENTEENRRFYRQLLLTADDRVNPCIGGVILFHETLYQKADDGRPFPQVIKSKGGVVGIKVDKGVVPLAGTNGETTTQGLDGLSERCAQYKKDGADFAKWRCVLKIGEHTPSALAIMENANVLARYASICQQNGIVPIVEPEILPDGDHDLKRCQYVTEKVLAAVYKALSDHHVYLEGTLLKPNMVTPGHACTQKFSNEEIAMATVTALRRTVPPAVTGVTFLSGGQSEEEASINLNAINKCPLLKPWALTFSYGRALQASALKAWGGKKENLKAAQEEYIKRALANSLACQGKYTPSGQSGAAASESLFISNHAY

The target in this test is CD82 (mouse) (mouse, UniProt P40237). Briefly: IP with anti CD82 antibodies, mouse muscle tissue, mass spectrometry.
The molecule B1 returned a Total of 25 and a Unique of 7.
For B2, in that order: 1 and 1.
For B3, in that order: 7 and 7.
For the molecule B4, the Total amounted to 2 and the Unique is 2.
Turning to B5, the Total is 3 and the Unique was 2.
In turn, B6 yielded a Total of 2 and a Unique of 2.
For B7, the Total came to 1 and the Unique amounted to 1.
B8 displayed a Total of 2 and a Unique of 2.
The molecule B9 showed a Total of 2 and a Unique of 2.
The molecule B10 registered a Total of 14 and a Unique of 11.
For B11, in that order: 1 and 1.
As to B12, the Total amounted to 2 and the Unique was 2.
For the molecule B13, the Total turned out to be 1 and the Unique was 1.
Regarding B14, the Total worked out at 3 and the Unique turned out to be 3.
